We go through 8 sequences from patent US20070185028A1, “Compositions and methods for treatment of protein misfolding and protein aggregation diseases” (priority 2004, published 2007).

Data set [1] deals with βL crystallin. Nature of the data set: Chaperone assay, thermal aggregation of βL crystallin. It counts as biochemical. The note with it: 1:10 target protein:peptide; light scattering 340 nm. The protocol:
Chaperone Assays. Chaperone assays of the five peptides were performed using previously established methods with minor modifications. Muchowski et al., J Mol Biol 289: 397-411, 1999. A 1:1 monomeric molar ratio of chaperone:target protein was determined to be the optimum ratio and all subsequent chaperone assays of the β3 mutants were performed in triplicate and at a 1:1 monomeric molar ratio of chaperone:target protein in a 96-well ELISA micro-titer plate. […] of the chaperone and βL crystallin were mixed in a total volume of 200 μl buffer (5 mM PBS, pH 7.0). Light scattering at λ=340 nm was measured using a Multiskan MCC/340 plate reader before heating (time=0). After the first reading, the plate was heated at 50° C. and readings were taken at fifteen minute intervals for one hour.
The ability of the peptides to suppress the thermal aggregation of βL crystallin was measured spectrophotometrically as light scattering at λ=340 nm from solutions containing 1:10 monomeric molar ratio of target protein:peptide.

For data set [2], the target named is T1, transthyretin (TTR) (Homo sapiens, UniProt P02766).
T1 construct: purchased Sigma-Aldrich
Kind of data set: Transthyretin fibrillation ThT assay. It counts as biochemical. The note with it: for effect on TTR fibril formation, overall: five αB crystallin peptides and control. The procedure: The effect of the five αB crystallin peptides ST, DR, HG, LT, and ER on TTR fibrillation was measured using the ThT fluorescence assay (FIG. 26). The formation and inhibition of TTR fibrils was qualitatively verified by fluorescence and bright-field microscopy. The concentration of the peptides was varied relative to TTR to establish a concentration curve. In addition, the effect of a control neuropeptide (AT1) with no TTR fibril inhibition activity was measured and compared to the effect of the αB crystallin peptides on TTR fibril formation. The ThT fluorescence of 16 μM TTR alone incubated at 37° C. for 4 hrs, increased from ˜15,000 to ˜45,000 RFU. Addition of 3.2 μM αB crystallin peptides, ST, DR, LT, and HG decreased the ThT fluorescence of TTR by 15-70%. In contrast, 3.2 μM ER had no effect on TTR fibril formation. Increasing the concentration of the ER peptide to 16 μM decreased the ThT fluorescence of TTR by 60%. The negative control peptide AT1 had no effect on TTR fibrillation even at a concentration as high as 160 μM. All five αB crystallin peptides inhibited TTR fibrillation at sub-stoichometric and stoichometric concentrations (3.2 μM and 16 μM).
The Thioflavin T (ThT) fluorescence of TTR in the presence of varying concentrations of αB crystallin peptides and controls was measured. […] When the concentration of the peptides was increased to 16 μM (1:1::peptide:TTR), the αB crystallin peptides ST, DR, HG, LT and ER decreased the ThT fluorescence by 8-72%. When the concentration of the peptides was increased further to 80 μM ([…]), all of the five αB crystallin peptides ST, DR, HG, LT, and ER decreased the ThT fluorescence by 40-70%. […] The formation and inhibition of TTR fibrils was verified microscopically.
Transthyretin fibrillation ThT assays were performed as described previously. Hurshman et al., Biochemistry 43:7365-81, 2004; O'Nuallain and Wetzel, Proc Natl Acad Sci USA 99:1485-90, 2002. Peptides were dissolved to 2 mM in 0.25% DMSO and diluted accordingly, while TTR was dissolved in 200 mM KCl, 2 mM EDTA, 5 mM PBS, 200 mM sodium acetate, pH 4.4. For the 5::peptide:TTR assay, 10 μL of 160 μM peptide was mixed with 10 μL of 32 μM TTR, and 1 μL of 1 mM ThT. For the 1:1::peptide:TTR assay, 10 μL of 32 μM peptide was mixed with 10 μL of 32 μM TTR and 1 μL of 1 mM ThT. For the 1:5::peptide:TTR assay, 10 μL of 6.4 μM peptide was mixed with 10 μL of 32 μM TTR and 1 μL of 1 mM ThT. ThT fluorescence was measured using a Perkin Elmer Victor^3 V plate reader. Assays were performed in 384-well fluorescence plates in duplicates or triplicates. Samples were incubated at 37° C. ThT fluorescence was measured continuously for 150 minutes. The effect of the peptides and APS was calculated as percentage fibril formation relative to TTR alone (100%) at the end of 150 minutes.

For data set [3] the following is noted: as provided by manufacturer (Mimotopes); cited from earlier work.

Entries after “also recorded” stand apart in the source; their conditions may differ.

With DRFSVNLDVKHFS, the “effect on the thermal aggregation of βL crystallin (ranking)” value (“effect on the thermal aggregation” for short) in data set [1] is “identical and slightly lower than the HG peptide”. The “effect on TTR fibril formation, overall” value in data set [2] is reported as “strong inhibition”. For the sequence ERTIPITRE, the “effect on the thermal aggregation” value in data set [1] is “identical and slightly lower than the HG peptide”. The “decrease in ThT fluorescence of TTR” value in data set [2] (3.2 μM, 16 μM TTR, 37° C.) was “no effect”. For the same sequence, the “effect on TTR fibril formation, overall” value in data set [2] is reported as “modestly inhibited”. Regarding FSVNLDVK [Peptide 38], the Hydrophobicity in data set [3] is given as 0.44. As to HGKHEERQDE, in data set [1], the “effect on the thermal aggregation” value is recorded as “strongest effect”. Also, the “effect on TTR fibril formation, overall” value in data set [2] (listed as HG) is “most effective inhibitor; also recorded: strong inhibition”. As for LTITSSLS [Peptide 66], the Hydrophobicity in data set [3] is 0.7.

Consider LTITSSLSSDGV, for which the “effect on the thermal aggregation” value in data set [1] was “identical and slightly lower than the HG peptide”. In addition, the “effect on TTR fibril formation, overall” value in data set [2] is recorded as “partially inhibited”. For the sequence STSLSPFYLRPPSFLRAP, the “effect on the thermal aggregation” value in data set [1] was “weakest effect”. Moreover, the “effect on TTR fibril formation, overall” value in data set [2] was “partially inhibited”.

As to WIRRPFFP [Peptide 5], the Hydrophobicity in data set [3] is listed as 0.88.
